This series is described as follows: soluble on expression in E. coli; label from the status in PepcDB or PDB records.
“MEVIRSQKRTVSNDVVSTPTLPLYLTAPHMEVRLEEFELFAIDRLRVLKGVSDGLARARNPNEMDDLVETLWKEHMRLSNVSEMINKDIISHFVLRLVYCRSDELKKWFLSMETALFRHRFRLKKIEEQRAIVGEFGLPYKAVIGAELESLKERLGLVARSHGQISSDVENIYYKVPFEEVPDLVASRRVLLQKGFAFVAGTQLVSLVVTQFRSHLSKALILTNRKWTTTIREREKDRLTPIVEALSTSYLGPDYSQSNEYADISLKDIDQVSKSSFPLCMRHLFEKLREDHHLKHGGRMQLGLFLKLDDALAFWREEFTKKVGSERFDKEYAYAIRHNYGKEGKRTDYTPYACSKIITSAPGAGDHHGCPYRHFSEDNLKAALSRMGLSSRGMEDVMDKVRNRHYQLACTLTFEAVYGTSCDTGINHPNQYFEESQKILKSKTPAAPV”: the “soluble on expression in E. coli” value was “soluble”.

Take “MGSDKIHHHHHHMTVLQLPIIDISGLTCQRNNSSDVVAQQIKQACQDYGFFYIVGHGVDEQLQTQLEHLSQEFFAQDQETKLKISMALGGRAWRGYFPVGNELTSGRPDLKEGIYFGSELKDNHPLVKAGTPMHGRNLFPSNIPQFRETVLEYIDSMTKLGHILMAGIALSLDLDKSYFAERYTKDPLILFRIFNYPPNLGSQSEWGVGEHTDYGVLTILKQDNIGGLQVKSKSGWIDAPPIPGSFVCNIGDMLDRMTRGLYRSTPHRVRNLSTSNRLSFPFFFDPNFNVEVKPIDLKDVVVKDDQSDRWDKASVHEFRGTYGDYLLKKVSKVFPELRQKVL”: the “soluble on expression in E. coli” value is recorded as “not soluble”.

In the case of “MVNKKRQVRFEFFQVNGKAQEGEKIVKGLFDLYPLADRINSISNYTDRDVILFGEKVRMDRFFEVSSSPELYAMHFTRLRNDKPAYVELNNEVLKEIPLNPGEYIAEDISCLYDRELSVLMVQRNIHSLSPSGIEDYFTEMSDDLVEIELLPVVNKEIISKALANEKFRKLELRAGSMNTTSDRSGLRKVLGPFMELFEKFEGTNFVIEISSGRSKKDLSEDQMKEVITAIEQDKSLFSSAIVSAKKSKEVPVEKYDLINGKLYVYRSFDLPDGAFLKSDSVIDNIKNYYFHPNEGGYRKQIIDAVK”, the “soluble on expression in E. coli” value is “not soluble”.

As to “MSLDRPRCCLRGKECSINRFQQVESRWGYSGTSDRIRFSVNKRIFVVGFGLYGSIHGPTDYQVNIQIIHTDSNTVLGQNDTGFSCDGSASTFRVMFKEPVEVLPNVNYTACATLKGPDSHYGTKGMRKVTHESPTTGAKTCFTFCYAAGNNNGTSVEDGQIPEVIFYTEGHHHHHH”, the “soluble on expression in E. coli” value is recorded as “soluble”.

Turning to “MEGWQRAFVLHSRPWSETSLMLDVFTEESGRVRLVAKGARSKRSNLKGALQPFTPLLLRYSGRGEVKTLRSAEAVSLALPLSGITLYSGLYINELLSRVLEYETRFSELFFDYLNCIQALAGTTGSPEPALRRFELALLGHLGYGVNFTHCAGSGERVDDTMTYRYREEKGFFASVVIDNNTFTGRHLKALEAREFPDVDTLRAAKRFTRMALKPYLGGKPLKSRELFRQFMPKRTVKTKKD”, the “soluble on expression in E. coli” value is given as “not soluble”.

Turning to “MSLSVRVDYALVGRELEAREAVCLVFDGSDGRLSSISSSSSCPESSPKFTIAVPPSVNAHIHSSDVQWPEVGNDLSLEELVAPPRGLKHLLLQQAGERACAEAAVGVYRALGRMVVRAAADFREPAAGGCLPVREILATLGGLYTRVVLMGRPGDPYGLEGCDGIGLNSPLDVDPKRMRLLKKSGMRIHAHVAETREMRLEGDLEAALDIGVDTVIHGTHLSREDLELLREHGVTLVLSPRSNMWHGVGLPPVAEAYRVGVKIAFGTDNAAWNMLDPWDEARQAMLVARLQGVKDPGLPHYILKGLLSWGYEALGMEPPALAEGADMCSVALMRLEGYEAGLFRRSFSRYYTLLKIARGDLLQPVCTISGGLLEPAEGHHHHHH”, the “soluble on expression in E. coli” value is “soluble”.

For “SIDSKLQTLGEQLMQGKRGAIVMIEPETGEVLCLVSSPSYDPSLLAGKDRGKNHLEMEHDRNKPLYARAIQATYPPGSTFKPAQGAIFLQEGVIRPTDAFSCYHGFPPLNNRPACHSHGSPLSLVPALATSCNAFFCWGLRAMLDNRRFYPSVQEAFEHWKNRIVGLGFGYRLGLDLPGERRGYIPNSKVYDKAYKGRWNSSTIISISIGQGEILATPLQIANLGVIIANRGRYRRPHVVKAIQGIPLDTAYTNWQNSGISPANMEYIVEGMARAVTGGTCHAANFAPGEIEVCGKTGTAENPHGKDHSAFLGFAPRNNPKVVVSVYVENGGFGAVYGVPIGRVMMEYYLREGKLSPEGEAVATKMSNTAIHYSNVF”, the “soluble on expression in E. coli” value is reported as “not soluble”.

Turning to “MGSDKIHHHHHHMDVDLGKLFFCGFNDFNEEVKEIIRKYRPTGILIYPGVLSKEYLLMDFMSFLSKEGDFLISSDHEGGQLEVLKYVPSSPGNLAFGKNSPDVTYRYSRVAGKIMEIVGLNMVFAPVLDLLSEESSSVIDIRSYGSDPKIVAEHGARACEGYLEGGVIPCIKHFPGHGKAREDSHLTLPVVDAPFEKLWEEDLLPFRKVLEREKKVTVMTAHVRYSSIDSLPATLSEKIITDVLREKIGFDGLVISDAMEMSAVSNNFSVEEIVSLFLNAGGNMILLGDYRNLPVYYETLVKLLEDGKVQKDKVERSIRTVEKYLAFAKKNSGVGFLADVSMKAVEFLGFEKIDHTSEVTLLVPSSENLSQADTTGGDYDQIPEIVSRFFEVENVVRYTVEDGPEFVEGDLIFDFVADIPNEKALKAHLSLPAEKTVYFVLRNPFDVRYFEGRKIVVTRSTKPISIYKSLEHFLGRCDS”, the “soluble on expression in E. coli” value was “not soluble”.

Regarding “MGSDKIHHHHHHMYQVIANFSFQNFEHDPVILINQIINQWRYNGQIIGREFSVTYHTQPSAHFQVRLATPEQISLMPEWNNDQVTEALSQAAEKGVEFESFEIIGRDYQAEQTSENSNARFYILYTTHLDSCSPLYNGDDFCPVPLYRLLQKDQSLAQALIKWQENWQACDQLQMNGTILEQPALNEISEIDSNLAQLGIKLCREVERVTQVPTYYYLYRLGTDEAVEYQRKCSSCGAEWRLTEPLHQIFHFKCDKCRLISNLSWQLQK”, the “soluble on expression in E. coli” value is “not soluble”.

In the case of “MSRDPTLILDESNLVIGKDGRVHYTFTTEDDNPKVRLASKCLGTAHFNQLMIERGDQATSYVAPVVVEGTGNPTGLFKDLKEISLELTDTANSQLWSKIKLTNRGMLQEYYDGKIKTEIVNSARGVATRISEDTDKKLALINDTIDGIRREYRDADRKLSASYQAGIEGLKATMANDKIGLQAEIKASAQGLSQKYDDELRKLSAKITTTSSGTTEAYESKLAGLRAEFTRSNQGTRTELESQISGLRAVQQSTASQISQEIRDREGAVSRVQQSLESYQRRMQDAEENYSSLTHTVRGLQSDVGSPTGKIQSRLTQLAGQIEQRVTRDGVMSIISGAGDSIKLAIQKAGGINAKMSGNEIISAINLNSYGVTIAGKHIALDGNTTVNGTFTTKIAEAIKIRADQIIAGTIDAARIRVINLNASSIVGLDANFIKAKIGYAITDLLEGKVIKARNGAMLIDLNTAKMDFNSDATINFNSKNNALVRKDGTHTAFVHFSNATPKGYTGSALYASIGITSSGDGVNSASSGRFAGLRSFRYATGYNHTAAVDQTEIYGDNVLVVDDFNITRGFKFRPDKMQKMLDMNDLYAAVVALGRCWGHLANVGWNTAHSNFTSAVNRELNNYITKI”, the “soluble on expression in E. coli” value is “not soluble”.

On to “MVDLYQLFKTRTPIIGVVHLLPLPTSPRWGGSLKAVIDRAEQEATALASGGVNGIIVENFFDAPFTKNQVDPAVVSAMTVVVQRIQNLVTLPVGLNVLRNDGKSAMAIASCVRAQFIRVNVLTGVMATDQGLIEGEAHELLRYRRELGSDVQILADVLVKHARPLSSPNLTVAVKDTIERGLADAVILSGWATGSPPNQEDLELACDAANGTPVFIGSGASWENIATLLQAANGVIVSSSLKRHGRIEQPIDPIRVSQFVEAAHRSWNSKGESKSVSSITIHSLEHHHHHH”, for which the “soluble on expression in E. coli” value is recorded as “not soluble”.

In the case of “MNTKLTKIISGLFVATAAFQTASAGNITDIKVSSLPNKQKIVKVSFDKEIVNPTGFVTSSPARIALDFEQTGISMDQQVLEYADPLLSKISAAQNSSRARLVLNLNKPGQYNTEVRGNKVWIFINESDDTVSAPARPAVKAAPAAPAKQQAAAPFTESVVSVSAPFSPAKQQAAASAKQTNIDFRKDGKNAGIIELAALGFAGQPDISQQHDHIIVTLKNHTLPTALQRSLDVADFKTPVQKVTLKRLNNDTQLIITTTGNWELVNKSAAPGYFTFQVLPKKQNLESGGVNNAPKTFTGRKISLDFQDVEIRTILQILAKESGMNIVASDSVSGKMTLSLKDVPWDQALDLVMQARNLDMRQQGNIVNIAPRDELLAKDKAFLQAEKDIADLGALYSQNFQLKYKNVEEFRSILRLDNADTTGNRNTLVSGRGSVLIDPATNTLIVTDTRSVIEKFRKLIDELDVPAQQVMIEARIVEAADGFSRDLGVKFGATGRKKLKNETSAFGWGVNSGFGGGDKWEAQTKINLPVAAAANSISLVRAISSGALNLELSASESLSKTKTLANPRVLTQNRKEAKIESGYEIPFTVTTASGGGNSTNTELKKAVLGLTVTPNITPDGQIIMTVKINKDSPAQCASGNNTILCISTKSLNTQAMVENGGTLIVGGIYEENNGNTLTKVPLLGDIPVIGNLFKTRGKKTDRRELLIFITPRIIDTAGNSLRY”, the “soluble on expression in E. coli” value was “not soluble”.

In the case of “MGSDKIHHHHHHMLFLQNTPLPEIIDGLPNISGWEAEVLSVVNNDAPVFLPTTNIKLEDVNAVFAIALHMHQPTIPAGDGGELISNLQYMFAHPHEGDNHNAGPFAYCYSRMGEFIPELVSQGCNPRVMLDYSGNLLWGLRQMGRNDVLDSLKGVTGDRTYQPHVEWLGTMWGHAVVPSTPIKDIKLHILAWQQHFAAIFGWEALARVKGFSPPEMHLPNHPDTLFQFVKALKECGYRWLLVQEHTVETIDGQSLTNRHLPHRLLARNSQGETISIIALIKTQGSDTKLVAQMQPYYEAKTLSKRRLGNVEIPPIVSQIGDGENGGVMMNEFPSAFKQAWWDMVNHGGGKSGVVGVCGTEYLELIEAAGVKPEDFPSCQPVGQHQIWQRVAPDNNQPEAVENAIQEIKQINPNFHLEGASWTNHISWVRGYENVLSPMYELSSLFHQKFDNLLLNNSYSSITKQPDYRQALLYNLLLQTSCFRYWGQGAWTDYAREIYQRGKSLLTS”, the “soluble on expression in E. coli” value is given as “not soluble”.

“MGSDKIHHHHHHMAGWRTVVVNTHSKLSYKNNHLIFKDSYQTEMIHLSEIDILIMETTDIVLSTMLIKRLVDENILVIFCDDKRLPTAMLMPYYARHDSSLQLSRQMSWIEDVKADVWTSIIAQKILNQSFYLGECSFFEKSQSIMNLYHDLEPFDPSNREGHAARIYFNTLFGNDFSREQDNPINAGLDYGYSLLLSMFAREVVKCGCMTQFGLKHANQFNQFNLASDIMEPFRPIVDRIIYENRQSDFVKMKRELFSMFSETYSYNGKEMYLSNIVSDYTKKVIKSLNSDGNGIPEFRI”: the “soluble on expression in E. coli” value was “not soluble”.

Regarding “MPLTFAHSFADAVPSLSVPWRAEQWPDPRIIVFNHELGQELGIDEASLLSNITQQGHAQAYSGHQFGQFNPLLGDGRALVLGDCAQTNAPHGQFEISLKGSGPTPFARRGDGRATLGPMLREYLISEALHGLGIPTTRSLAVITTGTDVQRERLLPGAVVVRVAQNHLRVGSVQCAAMRDDDSLAALVRYALSSHEDGVSDAEAAGLLLRRVSTSQAKLVAQWMRFGFVHGVMNTDNVTLSGQTIDFGPCAFIDSFHPQAVFSSIDSHGRYSFGRQPSIMGWNIARLAEALLPLMSIDEARNIVHEFPDMYRRSWLDEMADAVGISPDDDHAAGVLDDLVALLDVHRPDYAQFMRSLSDGTTVSLFPWAQQWEAEVSSLRVAAPRNPVYVPRNYLVEDALEHAMNADMSVFSLLVEAGKNPYLREKRFEKLENPAPETWQDYVTYCGTLEHHHHHH”, the “soluble on expression in E. coli” value is reported as “soluble”.

With “MGHHHHHHSHAADEEKAARGIAADRLIIGHVARFHEVKNHAFLLKLAAHLKERGIRFQLVLAGDGPLCGEIEEEARQQNLLSDVLFLGTEERIHELMRTFDVFVMPSLYEGLPVVLVEAQASGLPCIISDSITEKVDAGLGLVTRLSLSEPISVWAETIARAAAAGRPKREFIKETLAQ”, the “soluble on expression in E. coli” value is “soluble”.

(Values after the DeepSol protein solubility set.)
